Results on three substances are retold here after PMC8294851.

Experiment [1] concerns the target Neuronal SNARE complex (VAMP2 on nanolipoprotein particles with flipped t-SNAREs Syntaxin-1 and SNAP-25 on tCells) (not stated | rat) (UniProt P63045).
The target is the same in experiment [2]. The source holds these as a separate data set.
Experiment [3] has the same target. This is another data set of the same source.

Sequence of UniProt P63045 (P63045 whole entry, chain 1 of 3): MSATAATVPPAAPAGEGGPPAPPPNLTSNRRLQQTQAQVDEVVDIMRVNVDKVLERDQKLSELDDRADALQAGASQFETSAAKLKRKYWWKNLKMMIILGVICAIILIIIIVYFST
Sequence of UniProt P63045 (P32851 186-288, chain 2 of 3, further chain): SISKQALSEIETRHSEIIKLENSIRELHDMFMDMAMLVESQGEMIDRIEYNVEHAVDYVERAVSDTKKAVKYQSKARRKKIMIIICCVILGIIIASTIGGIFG
Sequence of UniProt P63045 (P60881 2-206, chain 3 of 3, further chain): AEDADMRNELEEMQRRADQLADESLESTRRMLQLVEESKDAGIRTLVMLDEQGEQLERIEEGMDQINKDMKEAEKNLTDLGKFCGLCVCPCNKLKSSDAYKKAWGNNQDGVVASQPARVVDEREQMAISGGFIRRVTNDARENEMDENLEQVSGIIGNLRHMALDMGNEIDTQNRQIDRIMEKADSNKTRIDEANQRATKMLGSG

As for “Synaptotagmin-1 C2AB R398Q, R399Q (from UniProt P21707 96-421) (domain or fragment)”, the mean single open-pore conductance, mutant C2AB with VAMP2 NLPs and flipped t-SNARE cells, 100 μM free calcium and exogenous PI(4,5)P2, compared to wild-type C2AB in experiment [1] came to 3 fold smaller. In the case of “Synaptotagmin-1 soluble C2AB domains (rat Syt1 residues 96-421) (from UniProt P21707 96-421) (domain or fragment)”, the mean single fusion pore conductance, 10 μM soluble C2AB with VAMP2 NLPs and flipped t-SNARE cells, 100 μM calcium and exogenous PI(4,5)P2, compared to no Syt1 in experiment [2] worked out at 3 fold. In turn, “Full-length Synaptotagmin-1 (pET28a-SUMO-synaptotagmin 1, residues 57-421), reconstituted into nanolipoprotein particles (from UniProt P21707 57-421) (natural protein)” gave a mean single-pore conductance, fusion of NLPs carrying Syt1 and VAMP2 with flipped t-SNARE cells pre-incubated with diC8PI(4,5)P2, compared to SNARE-alone fusion in experiment [3] of 3 fold.
